In paper PMC4158885 (The EMBO Journal, 2014):

Columns and labels:
[1] = molecular target: T1, ctPan2 Δ343–352 (PID deletion in full-length ctPan2) (Chaetomium thermophilum, UniProt G0SAK8 1-1170, Δ343–352); experiment: SEC; separately purified ctPan2 constructs and ctPan3 PKC dimer mixed 1:1 at 1 μM, 15 min at room temperature; Superdex 200 Increase 3.2/300 in 20 mM Tris pH 8.0, 500 mM NaCl, 2 mM TCEP; fractions on SDS–PAGE; details: both partners purified
T1 sequence (looked up): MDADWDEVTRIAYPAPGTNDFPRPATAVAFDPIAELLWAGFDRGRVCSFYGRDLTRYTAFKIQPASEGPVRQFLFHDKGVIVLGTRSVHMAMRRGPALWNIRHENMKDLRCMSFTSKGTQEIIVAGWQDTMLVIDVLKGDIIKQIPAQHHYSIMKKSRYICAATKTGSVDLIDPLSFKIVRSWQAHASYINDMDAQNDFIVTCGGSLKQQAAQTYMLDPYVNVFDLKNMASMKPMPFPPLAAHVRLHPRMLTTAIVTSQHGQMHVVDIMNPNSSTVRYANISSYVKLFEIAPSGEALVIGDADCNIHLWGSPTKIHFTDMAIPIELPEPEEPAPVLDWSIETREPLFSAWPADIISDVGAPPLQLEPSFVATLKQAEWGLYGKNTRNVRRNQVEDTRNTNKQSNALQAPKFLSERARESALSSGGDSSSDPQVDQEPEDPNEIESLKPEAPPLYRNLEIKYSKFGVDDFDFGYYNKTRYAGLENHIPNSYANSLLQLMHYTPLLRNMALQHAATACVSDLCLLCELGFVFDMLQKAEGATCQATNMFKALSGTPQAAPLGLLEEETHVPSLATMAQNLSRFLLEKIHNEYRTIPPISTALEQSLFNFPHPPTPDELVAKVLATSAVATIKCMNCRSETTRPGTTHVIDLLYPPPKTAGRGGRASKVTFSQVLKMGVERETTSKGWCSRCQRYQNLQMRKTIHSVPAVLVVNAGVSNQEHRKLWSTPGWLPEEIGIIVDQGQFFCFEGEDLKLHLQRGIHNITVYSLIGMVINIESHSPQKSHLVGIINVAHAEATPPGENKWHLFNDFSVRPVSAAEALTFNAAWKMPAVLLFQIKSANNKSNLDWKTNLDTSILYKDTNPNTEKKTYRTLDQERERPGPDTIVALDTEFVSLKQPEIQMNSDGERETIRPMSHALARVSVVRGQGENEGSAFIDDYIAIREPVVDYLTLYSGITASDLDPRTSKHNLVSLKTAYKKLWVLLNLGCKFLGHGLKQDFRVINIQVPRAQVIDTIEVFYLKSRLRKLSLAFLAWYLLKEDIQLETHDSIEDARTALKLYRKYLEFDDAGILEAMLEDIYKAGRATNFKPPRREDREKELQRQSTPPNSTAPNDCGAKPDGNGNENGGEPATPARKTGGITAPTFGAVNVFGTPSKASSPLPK

[2] = molecular target: T2, ctPan2 Δ343–375 (PID deletion in full-length ctPan2) (Chaetomium thermophilum, UniProt G0SAK8 1-1170, Δ343–375); experiment: as above; details: both partners purified
T2 sequence (looked up): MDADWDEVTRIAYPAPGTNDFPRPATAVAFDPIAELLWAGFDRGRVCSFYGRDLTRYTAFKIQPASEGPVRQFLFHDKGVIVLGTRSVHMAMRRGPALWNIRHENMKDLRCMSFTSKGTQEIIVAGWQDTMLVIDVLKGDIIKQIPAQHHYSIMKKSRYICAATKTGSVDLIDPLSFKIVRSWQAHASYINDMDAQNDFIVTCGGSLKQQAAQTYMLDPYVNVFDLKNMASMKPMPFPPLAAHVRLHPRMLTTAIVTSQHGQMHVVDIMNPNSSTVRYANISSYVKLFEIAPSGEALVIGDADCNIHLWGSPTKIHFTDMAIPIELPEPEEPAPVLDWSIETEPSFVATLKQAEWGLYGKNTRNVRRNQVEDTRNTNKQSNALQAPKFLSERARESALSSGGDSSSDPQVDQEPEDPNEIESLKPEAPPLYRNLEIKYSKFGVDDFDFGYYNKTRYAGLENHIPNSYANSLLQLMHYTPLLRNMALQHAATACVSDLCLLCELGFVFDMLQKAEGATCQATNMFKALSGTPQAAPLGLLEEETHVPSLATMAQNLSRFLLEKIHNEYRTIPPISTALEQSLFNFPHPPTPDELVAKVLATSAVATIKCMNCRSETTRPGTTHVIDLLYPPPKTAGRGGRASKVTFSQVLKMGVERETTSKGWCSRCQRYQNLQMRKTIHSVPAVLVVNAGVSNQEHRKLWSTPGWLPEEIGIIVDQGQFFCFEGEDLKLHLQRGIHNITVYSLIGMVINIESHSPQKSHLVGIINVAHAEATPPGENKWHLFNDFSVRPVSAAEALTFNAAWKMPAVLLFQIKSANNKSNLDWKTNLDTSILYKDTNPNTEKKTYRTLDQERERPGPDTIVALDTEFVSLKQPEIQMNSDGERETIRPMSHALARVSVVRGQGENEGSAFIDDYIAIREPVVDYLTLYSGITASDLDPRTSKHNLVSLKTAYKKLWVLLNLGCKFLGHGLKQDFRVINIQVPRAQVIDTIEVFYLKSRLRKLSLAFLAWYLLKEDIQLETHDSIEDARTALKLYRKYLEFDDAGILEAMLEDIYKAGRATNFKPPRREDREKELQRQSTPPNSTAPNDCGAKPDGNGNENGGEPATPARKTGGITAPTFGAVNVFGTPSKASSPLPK

B1: ctPan3 pseudokinase/C-terminal domain (PKC, residues 205–640), purified from E. coli (domain or fragment, Chaetomium thermophilum, UniProt G0S0Y3 205-640, looked up)
chain: RQELQPWQRATYDFFMPQNLREDLQKKQFATLQVIPNSGLPQLEHWHSLVPLDTSNRKNTSCFGYPSWVYKAQNSRNGRHYALRRLEGYRLTNEKAILNVMKDWKKIKNASIVTIHEVFTTREFGDSSLIFAYDFHPLSKTLQEHHFQPIHGNRYRPPPAVPENTIWGYICQIANALKTIHSNRLAARCLEPSKIILTDINRIRLSACAILDVVQFGMNSRSVVELQQEDFVKFGKLILSLATGTLPAHLNNIPAALETLGNKYSANLKSAVNWLLDTSSGETKTIEHFMTGIASQMTTFFDLALQDNDEKLFHLAREVENGRIARSLMKLLTILERGDYDGVPSWSETGDRYQLKLFRDYVFHRVDADGKPNLSIGHMLTCMSKLEAGVDENILLTSRDNETVFVLSYRELRQMYDRAFNELVKASKTGAPGANT
notes: Pan3, Chaetomium thermophilum, pseudokinase (242-497), coiled coil (499-538) and C-terminal domain (555-640), construct residues 205-640; The crystals of ctPan3 PKC alone (PDB 4CYI) were of Se-Met-labelled protein; also called ctPan3 PKC; ctPan3 PKC dimer; source: E. coli, purified (glutathione Sepharose)
B1: binds [1]; binds [2].
